This is an account of results in PMC4880445, “Structure of a Holliday junction complex reveals mechanisms governing a highly regulated DNA transaction” (eLife, 2016).

B2: bacteriophage λ integrase (Int) (enzyme)
chain: MGRRRSHERRDLPPNLYIRNNGYYCYRDPRTGKEFGLGRDRRIAITEAIQANIELFSGHKHKPLTARINSDNSVTLHSWLDRYEKILASRGIKQKTLINYMSKIKAIRRGLPDAPLEDITTKEIAAMLNGYIDEGKAASAKLIRSTLSDAFREAIAEGHITTNHVAATRAAKSEVRRSRLTADEYLKIYQAAESSPCWLRLAMELAVVTGQRVGDLCEMKWSDIVDGYLYVEQSKTGVKIAIPTALHIDALGISMKETLDKCKEILGGETIIASTRREPLSSGTVSRYFMRARKASGLSFEGDPPTFHELRSLSARLYEKQISDKFAQHLLGHKSDTMASQYRDDRGREWDKIEIK
notes: Integrase (Int) of bacteriophage λ, tyrosine recombinase; The model holds the NTD (residues 1-55), the NTD-CB linker (56-74) and the CB and catalytic domains (75-356); The NTD of Int-C is not in the model; also called site-specific recombinase; Int-B

Series [1] has as its target B2. Description: cryo-EM structure; excisive Holliday junction complex trapped by in vitro recombination of attL and attR (150 nM IHF, 350 nM Xis, 350 nM Int, 25 mM HEPES pH 7.5, room temperature); crosslinked with 0.0035% glutaraldehyde; purified on sucrose gradients; single particle map at about 11 Å; model built by fitting known crystal and NMR structures into the density. Particulars: both partners purified.

Series [2] concerns the molecule itself. Described as above.

B1: bacteriophage λ Xis protein (natural protein, UniProt P03699 1-72, looked up)
chain: MYLTLQEWNARQRRPRSLETVRRWVRECRIFPPPVKDGREYLFHESAVKVDLNRPVTGGLLKRIRNGKKAKS
notes: Virally encoded accessory DNA-bending protein Xis of bacteriophage λ; The 18 C-terminal residues are missing from the model, as in the Xis-DNA crystal structures; also called Xis1.5
As for B1, the binding result in series [1] is on record as “binds”.

The term stoichiometry N denotes the number of molecules, sites or subunits per partner or assembly. Take B2: in series [2], the “stoichiometry N” value was found to be 4.
